Experimental findings from patent US7786356B2, “Method for the production of calendic acid, a fatty acid containing delta 8,10,12 conjugated double bonds and related fatty acids having a modification at the delta 9 position” (E.I. du Pont de Nemours and Company, priority 1999, dated 2010) are described below.

The subject of the experiment is somatic soybean embryos. Kind of experiment: Production of calendic acid in somatic soybean embryos expressing CalFad2-1 or CalFad2-2. It counts as cell-based. To be noted: single somatic embryos. From the text: The open-reading frames of these cDNAs were amplified by PCR in order generate the appropriate flanking restriction enzyme sites for cloning into the soybean expression vector. The oligonucleotide primers used for amplification of the CalFad2-1 open-reading frame were: 5′-ttgcggccgc[…]-3′ (sense, SEQ ID NO:18) and 5′-ttgcggccg[…]-3′ (antisense, SEQ ID NO:19). The oligonucleotide primers used for amplification of the CalFad2-2 coding sequence were: 5′-agcggccgcTATACCATGGGCAAG-3′ (sense, SEQ ID NO:20) and 5′-tgcggccgcTATGTTAAACTTC-3′ (antisense, SEQ ID NO:21). [Note: The sequences shown in lower case contain an added NotI site along with additional bases to facilitate restriction enzyme digestion.] The template was the cDNA corresponding to either EST ecs1c.pk009.n14 (CalFad2-1) or EST ecs1c.pk08.a24 (CalFad2-2), and Pfu polymerase (Stratagene) was used for the amplification reactions. The resulting PCR products were subcloned into the intermediate vector pCR-Script AMP SK(+) (Stratagene) according to the manufacturer's protocol. The amplified CalFad2-1 and CalFad2-2 coding sequences were then released with NotI digestion and then subcloned into the corresponding site of the soybean expression vector pKS67.
The PCR amplified coding sequences of CalFad2-1 and CalFa2-2 were fused with the β-conglycinin promoter and phaseolin termination sequences in vector pKS67 was transformed into somatic soybean embryos as follows. To induce somatic embryos, cotyledons, 3-5 mm in length dissected from surface sterilized, immature seeds of a soybean cultivar A2872 or JACK-910 were cultured in the light or dark at 26° C. on an appropriate agar medium for 6-10 weeks. Somatic embryos that produce secondary embryos were then excised and placed into a suitable liquid medium. After repeated selection for clusters of somatic embryos that multiplied as early, globular staged embryos, the suspensions were maintained as described below.
Soybean embryogenic suspension cultures were maintained in 35 mL liquid media on a rotary shaker, 150 rpm, at 26° C. with florescent lights on a 16:8 hour day/night schedule. Cultures were subcultured every two weeks by inoculating approximately 35 mg of tissue into 35 mL of liquid medium.
Soybean embryogenic suspension cultures were then transformed with the vector pKS67 containing the coding sequence for CalFad2-1 and CalFad2-2 by the method of particle gun bombardment (Klein et al. (1987) Nature (London) 327:70, U.S. Pat. No. 4,945,050). A Du Pont Biolisticä PDS1000/HE instrument (helium retrofit) was used for these transformations.
To […] of a 60 mg/mL […] gold particle suspension were added (in order): 5 mL DNA (1 mg/mL), 20 ml spermidine (0.1 M), and […] CaCl2 (2.5 M). The particle preparation was then agitated for three minutes, spun in a microfuge for 10 seconds and the supernatant removed. The DNA-coated particles were then washed once in 400 mL 70% ethanol and resuspended in 40 mL of anhydrous ethanol. The DNA/particle suspension was sonicated three times for one second each. Five mL of the DNA-coated gold particles was then loaded on each macro carrier disk.
Approximately 300-400 mg of a two-week-old suspension culture was placed in an empty 60×15-mm petri dish and the residual liquid removed from the tissue with a pipette. For each transformation experiment, approximately 5 to 10 plates of tissue were bombarded. Membrane rupture pressure was set at 1100 psi and the chamber was evacuated to a vacuum of 28 inches mercury. The tissue was placed approximately 3.5 inches away from the retaining screen and bombarded three times. Following bombardment, the tissue was divided in half and placed back into liquid and cultured as described above.
Five to seven days post bombardment, the liquid media was exchanged with fresh media, and eleven to twelve days post bombardment with fresh media containing […] hygromycin. This selective media was refreshed weekly. […]

Where [1] appears, read: n = 5, ± standard deviation, weight % of total fatty acids.

B1: CalFad2-1: Calendula officinalis fatty acid modifying enzyme (cDNA SEQ ID NO:1, protein SEQ ID NO:2) forming conjugated double bonds at delta-9 position (protein, listed as Calendula officinalis)
chain: MGKGASNKKVLERVPITKPPFEYNDLKKAVPPHCFSRPLFRSFYFLLHDIIVTCILFYVASNYIPMLPGFLSYIVWPVYWISQGVFLGRLWMIGHECGHHSFSNYRWVDDSVGFLIHTATLTPYFSFKYSHRNHHAHTNSMEYDEVHIPKRKSEALDLYFEFLGNNPMGLMITMLCKLTFGYAAYIMFNYTGKKHKSGGLASHFYPQSPLFNDSERNHVLFSDVGICIVLYACYRIVMVTGAMSAFYVYGIPWVIMSAILFAATYLQHTHPSIPHYDTTEWNWLRGALSTIDRDLGFFNMNKTHYHVIHHLFPVIPEYHAQEATEAIKPILGQYYKYDGTPFLKALWREMKDCIYVESDQGQKKQGIYWFKNKI
Consider B1, for which the “Other, Fatty Acid Weight %” value (n = 5, weight % of total fatty acids) was “≦1.3 Weight %”. In addition, under setting [1], the “16:0, Fatty Acid Weight %” value worked out at 12.2 ± 1.0 Weight %; the “18:0, Fatty Acid Weight %” value is 3.5 ± 0.9 Weight %; the “18:1, Fatty Acid Weight %” value stood at 9.0 ± 1.5 Weight %; the “18:2, Fatty Acid Weight %” value is listed as 52.2 ± 2.4 Weight %. Under setting [1], the “18:3, Fatty Acid Weight %” value is reported as 18.8 ± 3.0 Weight % and the “Calendic Acid, Fatty Acid Weight %” value is 3.1 ± 1.0 Weight %.
